Measurements published in patent publication US20250262210A1 (TRUSTEES OF COLUMBIA UNIVERSITY IN THE CITY OF NEW YORK, published 2025).
Where a chain is given by its changes, count along the chain named.

T1: LZTR1-FLAG (human, UniProt Q8N653 1-840)
T1 construct: Expressed in HEK 293T, HeLa or U87 cells; used as cell lysate; also called LZTR1 wild type-FLAG; LZTR1 WT; not shown: FLAG tag at the C-terminus
T1 sequence (looked up): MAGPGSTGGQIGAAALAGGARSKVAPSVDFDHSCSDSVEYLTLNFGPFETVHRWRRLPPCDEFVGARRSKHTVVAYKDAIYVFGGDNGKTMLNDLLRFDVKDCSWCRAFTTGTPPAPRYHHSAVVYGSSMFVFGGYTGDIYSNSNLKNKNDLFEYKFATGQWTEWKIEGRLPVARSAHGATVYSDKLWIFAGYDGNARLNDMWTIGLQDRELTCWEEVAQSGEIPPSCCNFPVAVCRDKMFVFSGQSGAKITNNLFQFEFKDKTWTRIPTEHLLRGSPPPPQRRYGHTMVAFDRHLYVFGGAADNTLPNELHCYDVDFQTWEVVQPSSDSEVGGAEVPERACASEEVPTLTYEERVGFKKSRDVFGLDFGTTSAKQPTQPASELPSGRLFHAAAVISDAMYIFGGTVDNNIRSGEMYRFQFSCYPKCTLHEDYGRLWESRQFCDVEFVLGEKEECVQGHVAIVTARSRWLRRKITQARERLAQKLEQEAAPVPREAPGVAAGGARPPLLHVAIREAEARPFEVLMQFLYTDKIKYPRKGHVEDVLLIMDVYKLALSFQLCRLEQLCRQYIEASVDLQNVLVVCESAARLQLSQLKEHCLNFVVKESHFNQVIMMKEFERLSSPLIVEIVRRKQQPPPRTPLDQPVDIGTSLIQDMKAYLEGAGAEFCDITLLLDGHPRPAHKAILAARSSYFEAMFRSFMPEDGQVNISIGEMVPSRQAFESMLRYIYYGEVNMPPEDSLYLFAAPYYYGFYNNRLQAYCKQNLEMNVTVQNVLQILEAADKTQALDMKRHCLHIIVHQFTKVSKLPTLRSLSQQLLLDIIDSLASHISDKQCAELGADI

T2: LZTR1 R810W-FLAG (human, UniProt Q8N653 1-840)
T2 construct: Stably expressed in U87 cells by lentivirus; also called LZTR1-FLAG-R810W; LZTR1 RW; not shown: FLAG tag
T2 sequence (looked up): T1 sequence (looked up) with R810W

B1: UMPS (other, human, UniProt P11172 2-480, looked up)
chain: AVARAALGPLVTGLYDVQAFKFGDFVLKSGLSSPIYIDLRGIVSRPRLLSQVADILFQTAQNAGISFDTVCGVPYTALPLATVICSTNQIPMLIRRKETKDYGTKRLVEGTINPGETCLIIEDVVTSGSSVLETVEVLQKEGLKVTDAIVLLDREQGGKDKLQAHGIRLHSVCTLSKMLEILEQQKKVDAETVGRVKRFIQENVFVAANHNGSPLSIKEAPKELSFGARAELPRIHPVASKLLRLMQKKETNLCLSADVSLARELLQLADALGPSICMLKTHVDILNDFTLDVMKELITLAKCHEFLIFEDRKFADIGNTVKKQYEGGIFKIASWADLVNAHVVPGSGVVKGLQEVGLPLHRGCLLIAEMSSTGSLATGDYTRAAVRMAEEHSEFVVGFISGSRVSMKPEFLHLTPGVQLEAGGDNLGQQYNSPQEVIGKRGSDIIIVGRGIISAADRLEAAEMYRKAAWEAYLSRLGV
B2: UTP6 (other, human, UniProt Q9NYH9 1-597, looked up)
chain: MAEIIQERIEDRLPELEQLERIGLFSHAEIKAIIKKASDLEYKIQRRTLFKEDFINYVQYEINLLELIQRRRTRIGYSFKKDEIENSIVHRVQGVFQRASAKWKDDVQLWLSYVAFCKKWATKTRLSKVFSAMLAIHSNKPALWIMAAKWEMEDRLSSESARQLFLRALRFHPECPKLYKEYFRMELMHAEKLRKEKEEFEKASMDVENPDYSEEILKGELAWIIYKNSVSIIKGAEFHVSLLSIAQLFDFAKDLQKEIYDDLQALHTDDPLTWDYVARRELEIESQTEEQPTTKQAKAVEVGRKEERCCAVYEEAVKTLPTEAMWKCYITFCLERFTKKSNSGFLRGKRLERTMTVFRKAHELKLLSECQYKQLSVSLLCYNFLREALEVAVAGTELFRDSGTMWQLKLQVLIESKSPDIAMLFEEAFVHLKPQVCLPLWISWAEWSEGAKSQEDTEAVFKKALLAVIGADSVTLKNKYLDWAYRSGGYKKARAVFKSLQESRPFSVDFFRKMIQFEKEQESCNMANIREYYERALREFGSADSDLWMDYMKEELNHPLGRPENCGQIYWRAMKMLQGESAEAFVAKHAMHQTGHL
B3: VPS16 (other, human, UniProt Q9H269 1-839, looked up)
chain: MDCYTANWNPLGDSAFYRKYELYSMDWDLKEELRDCLVAAAPYGGPIALLRNPWRKEKAASVRPVLDIYSASGMPLASLLWKSGPVVSLGWSAEEELLCVQEDGAVLVYGLHGDFRRHFSMGNEVLQNRVLDARIFHTEFGSGVAILTGAHRFTLSANVGDLKLRRMPEVPGLQSAPSCWTVLCQDRVAHILLAVGPDLYLLDHAACSAVTPPGLAPGVSSFLQMAVSFTYRHLALFTDTGYIWMGTASLKEKLCEFNCNIRAPPKQMVWCSRPRSKERAVVVAWERRLMVVGDAPESIQFVLDEDSYLVPELDGVRIFSRSTHEFLHEVPAASEEIFKIASMAPGALLLEAQKEYEKESQKADEYLREIQELGQLTQAVQQCIEAAGHEHQPDMQKSLLRAASFGKCFLDRFPPDSFVHMCQDLRVLNAVRDYHIGIPLTYSQYKQLTIQVLLDRLVLRRLYPLAIQICEYLRLPEVQGVSRILAHWACYKVQQKDVSDEDVARAINQKLGDTPGVSYSDIAARAYGCGRTELAIKLLEYEPRSGEQVPLLLKMKRSKLALSKAIESGDTDLVFTVLLHLKNELNRGDFFMTLRNQPMALSLYRQFCKHQELETLKDLYNQDDNHQELGSFHIRASYAAEERIEGRVAALQTAADAFYKAKNEFAAKATEDQMRLLRLQRRLEDELGGQFLDLSLHDTVTTLILGGHNKRAEQLARDFRIPDKRLWWLKLTALADLEDWEELEKFSKSKKSPIGYLPFVEICMKQHNKYEAKKYASRVGPEQKVKALLLVGDVAQAADVAIEHRNEAELSLVLSHCTGATDGATADKIQRARAQAQKK

Each binder was assayed against T1, LZTR1-FLAG (assay: IP/MS, LZTR1 wild type-FLAG, U87).
Procedure, shortened: (§1)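 Gel slices were reduced with 5 mM DTT, alkylated with 11 mM IAA and digested overnight at 37° C. with trypsin. Peptides were analysed on an Orbitrap Fusion Tribrid by LC-MS/MS.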

Binding result, binds:
B1
B2
B3

The binders below were run against T2, LZTR1 R810W-FLAG (assay: IP/MS, LZTR1 R810W-FLAG, U87).
Procedure, shortened: as §1

Binding result, binds:
B1
B2
B3
